Where two headings read alike, the source gives them in different places.

Here are results for five molecules from US6855495B1, “Toso as a target for drug screening” (Rigel Pharmaceuticals, Inc., priority 1998, dated 2005).

The conditions of series [1]: Gamen et al. 1996; cited from earlier work.
Series [2] has as its system 70Z/3 cells.
In series [3] the test system is Jurkat.ecoR cells. The series can be described thus: FADD-induced apoptosis in Jurkat.ecoR cells. The series is classed as cell-based, human. As to conditions: 24 hours postinfection with pBabeMN-FADD. As for the experimental part: Fas-mediated apoptosis is activated through FADD. For FADD-induced apoptosis, mouse FADD (a gift from Dr. Angeles Estelles, Dept. Mol. Pharm., Stanford Univ.) was ligated into pBabeMN retroviral vector. Jurkat.ecoR cells expressing Lyt-2-α′ or Toso were infected with pBabeMN-LacZ or pBabeMN-FADD. After 24 hours infection with FADD, the cells were stained with ethidium bromide and acridine orange and counted the apoptotic cells. The effect of Toso on FADD-induced apoptosis was investigated by infecting Jurkat.ecoR cells expressing Lyt-2-α′ or Toso, with pBabeMN-LacZ or pBabeMN-FADD. The reinfection efficiency was approximately 40% using pBabeMN-LacZ. Jurkat.ecoR cells were infected with pBabeMN-Lyt-2-α′ and pBabeMN-Toso. Infection frequency of pBabeMN-Lyt-2-α′ was determined to be 72%. Jurkat.ecoR cells expressing Lyt-2-α′ or Toso were infected with pBabeMNLacZ or pBabeMN-FADD and apoptotic cells were counted at 24 hourrs postinfection. Infection frequency of pBabeMN-lacZ in Jurkat.ecoR cells expressing Lyt-2-α′ and Toso was determined to be 39% and 43%, respectively.

The test system of series [4] is Jurkat.ecoR cells. Put plainly: anti-Fas mAb-induced apoptosis in Jurkat.ecoR cells expressing the construct. Type of series: cell-based, human. As to conditions: for anti-Fas mAb-induced apoptosis: 10 ng/ml anti-Fas mAb, 24 hours, in words. As for the experimental part: Jurkat cells that express the receptor for ecotropic murine retroviruses (“Jurkat.ecoR”) were infected with retroviruses that express Toso and control vectors, pBabeMN-Toso, pBabeMN-lacZ and pBabeMN-Lyt-2-α′(α′ form of mouse CD8α chain) (Tagawa, et al. (1986)). Jurkat.ecOR cells were infected with pBabeMN-lacZ, pBabeMN-Lyt-2-α′, and pBabeMN-Toso. At 72 hours postinfection, infection frequency of pBabeMN-lacZ and pBabeMN-Lyt-2α′ were determined to be 45% and 58%, respectively. Jurkat cells were then cultured with 10 ng/ml anti-Fas mAb for 24 hours. After 12 or 24 hours, the cells were stained with 100 μg/ml ethidium bromide (SIGMA) and 100 μg/ml acridine orange (SIGMA). Apoptotic cells and non-apoptotic cells were identified with UV microscopy as described (MacGahon, et al., The End of the (Cell) Line: Methods for the Study of Apoptosis in vitro, in Methods in cell biology, L. J. Schwartz and B. A. Osborne, eds., San Diego, Calif., Academic Press, Inc., pp. 172-173 (1995)).
Jurkat.ecOR cells were infected with pBabeMN-Lyt-2-α′. HA, pBabeMN-Toso. HA, pBabeMN-TosoΔ(377-390). HA, pBabeMN-TosoΔ(334-390). HA, pBabeMN-TosoΔ(281-390).HA, pBabeMNTosoΔ(252-390).HA and pBabeMN-TosoΔ(29-187).HA. Jurkat cells were cultured with 10 ng/ml anti-Fas mAb for 24 hours and apoptotic cells were counted. […] Deletions of regions of the cytoplasmic domain of Toso from 334 to 390 still inhibited apoptosis. Moreover, a deletion of Toso lacking the entire cytoplasmic domain still retained substantial anti-apoptotic ability. Thus, the cytoplasmic domain of Toso is not absolutely required for the anti-apoptotic effects on Fas antibody-stimulated cells.

The subject of series [5] is Jurkat.ecoR cells. The series can be described thus: staurosporine- and ceramide-induced apoptosis in Jurkat.ecoR cells. The series is classed as cell-based, human. The settings on record: 24 hours, any concentration. On the procedure:
Jurkat cells that express the receptor for ecotropic murine retroviruses (“Jurkat.ecoR”) were infected with retroviruses that express Toso and control vectors, pBabeMN-Toso, pBabeMN-lacZ and pBabeMN-Lyt-2-α′(α′ form of mouse CD8α chain) (Tagawa, et al. (1986)). Jurkat.ecOR cells were infected with pBabeMN-lacZ, pBabeMN-Lyt-2-α′, and pBabeMN-Toso. At 72 hours postinfection, infection frequency of pBabeMN-lacZ and pBabeMN-Lyt-2α′ were determined to be 45% and 58%, respectively. Jurkat cells were then cultured with 10 ng/ml anti-Fas mAb for 24 hours. After 12 or 24 hours, the cells were stained with 100 μg/ml ethidium bromide (SIGMA) and 100 μg/ml acridine orange (SIGMA). […]
Staurosporine is a bacterial alkaloid that is a broad spectrum inhibitor of protein kineses (Tamaoki and Nakano, Biotechnology, 8:732-735 (1990)) and induces programmed cell death in various cell lines and dissociated primary cells in culture (Ishizaki, et al, J. Cell Biol., 121:899-908 (1993); Jacobson, et al., Nature, 361:365-369 (1993); Raff, et al., Science. 262:695-700 (1993)). Ceramide generation is implicated in a signal transduction pathway that mediates programmed cell death induced by Fas and TNF-α (Cifone, et al., J. Exp. Med., 180:1547-1552 (1994); Obeid, et al., Science, 259:1769-1771 (1993)). pBabeMN-LacZ infected cells were counted by microscopic observation; infection frequency was determined to be 57%. […]

Series [6] relates to Jurkat.ecoR cells. Put plainly: TNF-α-induced apoptosis in Jurkat.ecoR cells. Type of series: cell-based, human. The settings on record: 1 μg/ml TNF-α with 0.1 μg/ml CHX, 12 hours, versus Lyt-2-α′. On the procedure: The Fas receptor has homology to the TNF-α receptor, and these two receptors share analogous signaling systems as well as several intracellular mediators (Hsu, et al., Cell, 84:299-308 (1996)). The protective effect of Toso against TNF-α-induced apoptosis was tested by culturing Jurkat.ecOR cells expressing Lyt-2-α′ or Toso with 10 ng/ml of anti-Fas mAb or 1 μg/ml of TNF-α in the presence of 0.1 μg/ml of cyclohexamide (CHX) for 12 hours and apoptotic cells were counted. The infection frequency of pBabeMN-Lyt-2-α′ was determined to be 58%. […] Thus the TNF-α and Fas signaling pathways may converge at a common point that can be inhibited by Toso.

Series [7] relates to caspase-8. The series can be described thus: Western blot of caspase-8 processing after Fas activation. The series is classed as cell-based, human. The settings on record: 50 ng/ml anti-Fas mAb, 6 hours, versus control Jurkat.ecoR cells. As for the experimental part:
The effect of overexpression of Toso on processing of caspase-8, which associates with FADD, was evaluated. […] To detect caspase-8, whole-cell lysates (2×10^6 cells per lane) were resolved by SDS-PAGE, transferred to an membrane and processed with goat anti-Mch5 p20 antibody (Santa Cruz Biotechnology, Inc., Santa Cruz, Calif. 95060, U.S.A.) as described above.
(Immunoblotting shows a protein as a band on a membrane.)

The test system of series [8] is cFLIP. Put plainly: semi-quantitative RT-PCR of cFLIP mRNA expression. The series is classed as cell-based, human. As to conditions: Jurkat.ecoR cells. An excerpt: Recently several groups have reported cFLIP is a caspase-8 inhibitor. We performed semi-quantitative RT-PCR to detect […] expression. To detect […] expression, a 1.1 kbp fragment (998-2061) of the cFLIP gene (U97074) was amplified with primers 5'-[NT] ID NO:32) and 5'-[NT] ID NO:33) for 35 cycles as described above. The sequence of the 1.1 kbp PCR product was verified using cycle sequencing ready reaction kit (Perkin Elmer, Calif. 94404, U.S.A.).

Series [9] has as its system Bcl-2 and Bcl XL. Put plainly: Western blot of Bcl-2 and Bcl XL expression levels in Toso expressing cells. The series is classed as cell-based, human. The settings on record: data not shown. As for the experimental part:
The downstream effects of Toso on known inhibitors of apoptosis, were evaluated by western blot analysis of Bcl-2 and BCI XL expression levels in Toso expressing cells. Bcl-2 overexpression can block Fas-induced apoptosis as well as staurosporine-induced apoptosis (data not shown). No change in the levels of expression of Bcl-2 or BcI XL was observed by Western blot (data not shown).

The test system of series [10] is Jurkat.ecoR cells. The series can be described thus: PMA/Ionomycin-induced apoptosis in Jurkat.ecoR clones. Type of series: cell-based, human. The settings on record: five pBabeMN-Toso-infected clones; 10 ng/ml PMA and 500 ng/ml Ionomycin, 24 hours. An excerpt: However, following activation with PMA/lonomycin one third of Jurkat cells were clearly resistant to anti-Fas mAb induced apoptosis.
We further tested whether Toso expression could rescue activation-induced programmed cell death. We randomly picked five pBabeMN-Toso-infected Fas resistant Jurkat T cell clones and used these to assay the inhibitory effect of Toso on PMA/lonomycin-induced apoptosis.

Series [11] has as its system human cell lines. Put plainly: anti-Fas mAb-induced apoptosis in several human cell lines overexpressing Toso. The series is classed as cell-based. The settings on record: data not shown. An excerpt:
Toso was expressed in several human cell lines including Jurkat cells, CemT4 cells (human T cell leukemia), SupT1 cells (human T cell leukemia, a kind gift from Dr. Cleary, M. L., Stanford Univ.), Oli-Ly8 cells (human B cell line; transformed with EBV), AMK cells (human B cell line; transformed with EBV), both a gift from Dr. Negrin, R. S., Stanford Univ., Reh cells (acute lymphocytic leukemia; non T; non B), HL-60 cells (promyelocytic leukemia) and HepG2 cells (hepatoma) using pBabeMN-Toso IRES neo to allow cotranslational selection with Geneticin (GIBCO BRL).

On to DEVD-CHO, for which the ceramide-induced apoptosis result in series [1] is on record as “does not inhibit”.

“Lyt-2: full length Lyt-2 (mouse CD8α), control [reference compound]”: the “massive / rapid cell death in 70Z/3 cells” value in series [2] (after retroviral infection, in words) is “did not induce rapid cell death”.

B1: FADD: mouse FADD expressed from the pBabeMN retroviral vector, apoptosis inducer (protein, UniProt Q61160 1-205, looked up)
FAS-associated death domain …: MDPFLVLLHSLSGSLSGNDLMELKFLCRERVSKRKLERVQSGLDLFTVLLEQNDLERGHTGLLRELLASLRRHDLLQRLDDFEAGTATAAPPGEADLQVAFDIVCDNVGRDWKRLARELKVSEAKMDGIEEKYPRSLSERVRESLKVWKNAEKKNASVAGLVKALRTCRLNLVADLVEEAQESVSKSENMSPVLRDSTVSSSETP
With B1, the “apoptosis induced in control Jurkat cells” value in series [3] turned out to be 45%.

B2: 4.8.HA: full-length Toso with C-terminal influenza hemagglutinin (HA) tag (protein)
chain: RILPEVKVEGELGGSVTIKCPLPEMHVRIYLCREMAGSGTCGTVVSTTNFIKAEYKGRVTLKQYPRKNLFLVEVTQLTESDSGVYACGAGMNTDRGKTQKVTLNVHSEYEPSWEEQPMPETPKWFHLPYLFQMPAYASSSKFVTRVTTPAQRGKVPPVHHSSPTTQITHRPRVSRASSVAGDKPRTFLPSTTASKISALEGLLKPQTPSYNHHTRLHRQRALDYGSQSGREGQGFHILIPTILGLFLLALLGLVVKRAVERRKALSRRARRLAVRMRALESSQRPRGSPRPRSQNNIYSACPRRARGADAAGTGEAPVPGPGAPLPPAPLQVSESPWLHAPSLKTSCEYVSLYHQPAAMMEDSDSDDYINVPA
modifications: left off: small tags and cut ends
notes: full-length Toso with C-terminal influenza hemagglutinin (HA) tag
Regarding B2, the “anti-Fas mAb-induced apoptosis” value in series [4] is given as “markedly inhibited”. Besides, in [2], the “% Viable Cells” value is 30 ± 4% and the “massive / rapid cell death in 70Z/3 cells” value is recorded as “massive cell death was observed”.

B3: Toso: novel 390-amino acid Ig superfamily type 1 membrane protein (SEQ ID NO:2), expressed from retroviral vector pBabeMN (protein, listed as Homo sapiens)
chain: MDRWLWPLYFLPVSGALRILPEVKVEGELGGSVTIKCPLPEMHVRIYLCREMAGSGTCGTVVSTTNFIKAEYKGRVTLKQYPRKNLFLVEVTQLTESDSGVYACGAGMNTDRGKTQKVTLNVHSEYEPSWEEQPMPETPKWFHLPYLFQMPAYASSSKFVTRVTTPAQRGKVPPVHHSSPTTQITHRPRVSRASSVAGDKPRTFLPSTTASKISALEGLLKPQTPSYNHHTRLHRQRALDYGSQSGREGQGFHILIPTILGLFLLALLGLVVKRAVERRKALSRRARRLAVRMRALESSQRPRGSPRPRSQNNIYSACPRRARGADAAGTGEAPVPGPGAPLPPAPLQVSESPWLHAPSLKTSCEYVSLYHQPAAMMEDSDSDDYINVPA
For the molecule B3, the “Fas induced apoptosis in the presence of CHX” value in [4] (10 ng/ml anti-Fas mAb with 0.1 μg/ml CHX, 12 hours) was “inhibited Fas induced apoptosis”. In addition, the “anti-Fas mAb-induced apoptosis” value in [4] is recorded as “resistant to Fas-mediated apoptosis over a range of antiFas dilutions”. Moreover, the “surviving Jurkat cells that expressed GFP” value in [4] (pBabeMN-Toso-IRES-GFP-infected cells, five days with 50 ng/ml anti-Fas mAb) came to 99.7%. Also, in series [5], the ceramide-induced apoptosis entry is reported as “not resistant” and the staurosporine-induced apoptosis result was “not resistant”. Moreover, the TNF-α-induced apoptosis result in [6] is “protected against TNF-α-induced apoptosis”. Further, in [3], the “FADD-induced apoptosis in cells constitutively expressing the construct” value is on record as “failed to induce apoptosis”. The “processed form (p20) of FLICE after Fas activation” value in series [7] is given as “greatly reduced”. In addition, in series [8], the cFLIP expression entry is listed as “induced”. Further, in series [9], the “levels of expression of Bcl-2 or Bcl XL” value is on record as “No change”. Besides, the PMA/Ionomycin-induced apoptosis result in [10] is given as “significant resistance”. Besides, in series [11] (all human T cell lines and B cell line Ocl-Ly8), the “apoptosis induced by anti-Fas mAb” value is “inhibited”. In addition, the “protection against Fas-induced apoptosis” value in series [11] (the other cell lines) is given as “no significant protection”. Besides, in [2] (70Z/3 cells infected with pBabeMN-Toso), the “dead cells after infection” value was “about 70%”.
